This is an account of results in PMC10786891, “Massively parallel profiling of RNA-targeting CRISPR-Cas13d”.

Residue numbers refer to the chain shown, from its start. Numbers in names are those of the source.

The labels stand for the following.
T1: EsCas13d, nuclease-dead (Eubacterium siraeum, UniProt B0MS50, R295A;H300A;R849A;H854A)
T1 sequence: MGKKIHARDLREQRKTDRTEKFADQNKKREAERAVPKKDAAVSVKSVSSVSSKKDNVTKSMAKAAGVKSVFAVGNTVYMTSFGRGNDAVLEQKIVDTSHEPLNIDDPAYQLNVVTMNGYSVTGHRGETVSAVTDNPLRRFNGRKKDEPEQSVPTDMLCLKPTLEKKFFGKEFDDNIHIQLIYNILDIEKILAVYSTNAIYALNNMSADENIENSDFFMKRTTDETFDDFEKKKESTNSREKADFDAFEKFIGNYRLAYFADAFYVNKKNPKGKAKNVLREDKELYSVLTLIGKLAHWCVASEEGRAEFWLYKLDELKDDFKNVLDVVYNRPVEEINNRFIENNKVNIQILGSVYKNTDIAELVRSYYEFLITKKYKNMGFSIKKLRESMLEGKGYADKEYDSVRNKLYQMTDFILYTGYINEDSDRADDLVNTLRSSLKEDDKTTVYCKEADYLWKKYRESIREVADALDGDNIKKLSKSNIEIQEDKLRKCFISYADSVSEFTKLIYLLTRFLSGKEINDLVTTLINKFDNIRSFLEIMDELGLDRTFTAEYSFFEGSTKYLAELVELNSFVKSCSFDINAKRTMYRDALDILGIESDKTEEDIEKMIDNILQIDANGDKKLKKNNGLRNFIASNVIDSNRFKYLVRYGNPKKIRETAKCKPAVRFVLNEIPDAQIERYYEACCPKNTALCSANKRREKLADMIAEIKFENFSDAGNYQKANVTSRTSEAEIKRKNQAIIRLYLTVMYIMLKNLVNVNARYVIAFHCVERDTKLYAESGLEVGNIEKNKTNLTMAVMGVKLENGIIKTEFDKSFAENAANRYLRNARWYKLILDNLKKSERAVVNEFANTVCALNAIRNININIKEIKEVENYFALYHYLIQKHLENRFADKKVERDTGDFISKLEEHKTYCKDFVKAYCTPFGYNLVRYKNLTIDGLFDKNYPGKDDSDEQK

B1: target 1 A18C (mixed)
RNA 1: CACCCGUGCAAAAAUGCAGGGGUCUAAAACUGAGCGGAUAACCUCUCUAUGG
RNA 2: GGGAAUGGAUCCACAUCUACGAAUUCGUACCAUCGAGAGGUUAUCCGCUCACCGAGAUCGGAAGAGCACACGU
B2: target 1 insC 3' of 20,insU 3' of 6 (mixed)
RNA 1: B1 RNA 1
RNA 2: GGGAAUGGAUCCACAUCUACGAAUUCGUACCACUAGAGAGGUUAUCCUGCUCACCGAGAUCGGAAGAGCACACGU
B3: target 1 C6G,A18C (mixed)
RNA 1: B1 RNA 1
RNA 2: B1 RNA 2 with C46G
B4: target 1 insU 3' of 13,insG 3' of 4 (mixed)
RNA 1: B1 RNA 1
RNA 2: GGGAAUGGAUCCACAUCUACGAAUUCGUACCAUAGAGAGUGUUAUCCGCGUCACCGAGAUCGGAAGAGCACACGU
B5: target 1 insU 3' of 17,insU 3' of 1 (mixed)
RNA 1: B1 RNA 1
RNA 2: B4 RNA 2 with A36U, G37A, A38G, G39A, U40G, G50U, U51C, C52A, A53U
B6: target 1 U3A,U10A (mixed)
RNA 1: B1 RNA 1
RNA 2: B1 RNA 2 with C34A, U42A, U49A
B7: target 1 A1C,A18C (mixed)
RNA 1: B1 RNA 1
RNA 2: B1 RNA 2 with A51C
B8: target 1 insC 3' of 10,insC 3' of 9 (mixed)
RNA 1: B1 RNA 1
RNA 2: B4 RNA 2 with U40G, G41U, U43C, U45C, C46U, G48C, C49G, G50C
B9: target 1 insU 3' of 18,insU 3' of 17 (mixed)
RNA 1: B1 RNA 1
RNA 2: GGGAAUGGAUCCACAUCUACGAAUUCGUACCAUAUGUAGAGGUUAUCCGCUCACCGAGAUCGGAAGAGCACACGU
B10: target 1 C6A,A9G (mixed)
RNA 1: B1 RNA 1
RNA 2: B1 RNA 2 with C34A, A43G, C46A
B11: target 1 C2A,G17A (mixed)
RNA 1: B1 RNA 1
RNA 2: B1 RNA 2 with C34A, G35A, C50A
B12: target 1 insC 3' of 10,insG 3' of 2 (mixed)
RNA 1: B1 RNA 1
RNA 2: B4 RNA 2 with U40G, G41U, U43C, G50U, U51C, C52G
B13: target 1 A14C,G15A (mixed)
RNA 1: B1 RNA 1
RNA 2: B1 RNA 2 with C34A, G37A, A38C
B14: target 1 C4U,G5U (mixed)
RNA 1: B1 RNA 1
RNA 2: B1 RNA 2 with C34A, G47U, C48U
B15: target 1 A1U,A18C (mixed)
RNA 1: B1 RNA 1
RNA 2: B1 RNA 2 with A51U

For the data set, the target named is T1, EsCas13d, nuclease-dead. The experiment in a line: crRNA (strand 1, pre-loaded); Mg2+; 40 mM Tris-HCl pH 7.5, 150 mM NaCl, 6 mM MgCl2, 1 mM DTT, 0.1% Tween-20, 0.2 mg/ml BSA; 25 C; 10 min per concentration, then washed. Conditions: tags: His6-TwinStrep-SUMO cleaved; N-terminal SNAP kept (SNAP-Surface 488); label: 3' end held by stalled T7 RNA polymerase.
As usually defined, the Kd is a measure of binding affinity in units of concentration. A low value points to higher affinity. B1 showed a dissociation constant Kd of 51.3 ± 3.5 nM.
For B2 the value was 11.3 ± 0.9 nM; for B3, 62 ± 8 nM; for B4, 14.2 ± 2 nM.
Regarding B5, the Kd was found to be 22.4 ± 2.3 nM. This Kd lies about 1.6-fold higher than the previous one.
In turn, B6 had a Kd of 21.2 ± 2.5 nM.
Regarding B7, binding was characterised by a dissociation constant (Kd) of 75 ± 29 nM.
The molecule B8 yielded a Kd of 14.9 ± 0.6 nM.
For B9 the value was 47 ± 8 nM.
For the molecule B10, the dissociation constant (Kd) was found to be 11.5 ± 0.6 nM.
For B11 the value was 47 ± 6 nM; for B12, 24.8 ± 2.1 nM.
B13 came in with a Kd of 32 ± 2.8 nM.
Turning to B14, the Kd amounted to 49 ± 4 nM.
The molecule B15 gave an equilibrium dissociation constant (Kd) of 66 ± 12 nM. The Kd values of the last two molecules are within 1.5-fold of each other.
